Reference: PMC10164616

Target: monomeric receptor binding domain from SARS-CoV-2 Spike protein, RBD (319-541)-His6 (SARS-CoV-2) (UniProt P0DTC2)
Assay: SEC

## monomeric receptor binding domain from SARS-CoV-2 Spike protein, RBD (319-541)-His6 (from UniProt P0DTC2 319-541) (domain or fragment)
  percent dimer (GF-HPLC, first week at 37 °C): 14%
  stoichiometry N: 2
